Measured values as given in patent US20240109974A1 (SHANDONG SIMCERE BIOPHARMACEUTICAL, published 2024).

T1: human TNFR2 on the surface of CHO-TNFR2 cells (human, UniProt P20333 23-461)
T1 construct: whole, on cells
T1 sequence (looked up): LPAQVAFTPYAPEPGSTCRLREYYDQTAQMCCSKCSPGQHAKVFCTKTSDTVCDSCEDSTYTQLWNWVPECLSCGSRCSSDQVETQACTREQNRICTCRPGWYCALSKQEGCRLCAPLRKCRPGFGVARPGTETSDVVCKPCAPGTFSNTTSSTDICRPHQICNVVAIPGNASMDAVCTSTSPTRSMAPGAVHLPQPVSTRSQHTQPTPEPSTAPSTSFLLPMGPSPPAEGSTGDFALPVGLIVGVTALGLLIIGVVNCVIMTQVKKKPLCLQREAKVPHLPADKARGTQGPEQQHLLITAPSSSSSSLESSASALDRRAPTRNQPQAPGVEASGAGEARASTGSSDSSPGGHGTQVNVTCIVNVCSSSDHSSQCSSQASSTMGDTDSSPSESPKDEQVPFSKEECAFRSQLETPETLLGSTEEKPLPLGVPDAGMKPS


What was measured:
[1] = target: T1, human TNFR2 on the surface of CHO-TNFR2 …; experiment: flow cytometry on CHO-TNFR2 cells
Protocol: (§1) The transfected full-length plasmid of human TNFR2 was purchased from Sino Biological (Cat #HG10417-UT, NCBI Ref Seq: NM_001066.2). The experiment was conducted at a cell density within 80%. The cell medium was discarded; the cells were rinsed with PBS, and digested with 1 ml trypsin for 2 minutes; the digestion was stopped with a Ham's F12 complete medium containing 10% FBS, and then a cell suspension was made. The cell suspension was counted, and then an appropriate amount of cell suspension was centrifuged at 350×g; the supernatant was discarded; a corresponding volume of blocking solution (10% FBS+PBS) at a density of 1×10⁷ cells/ml was added to resuspend the cells, and the mixture was incubated at 4° C. for 30 minutes. After the incubation, the mixture was centrifuged at 350×g to remove the supernatant, and the cells were resuspended in a staining buffer (2% FBS+PBS) to a density of 2×10⁶ cells/ml, and spread onto a 96-well plate, with 50 μl of cell suspension added to each well for later use. The antibody was diluted with PBS for 10-fold gradient dilution from the highest concentration of 20 μg/m (twice the concentration); the diluted antibody was added to the well containing 50 μl of cell suspension, and placed on a microplate shaker for shaking at 500 rpm for 1 minute, so that the antibody was fully mixed with the cells; the mixture was incubated at 4° C. for 1 h. After the incubation, the cells were washed twice with the staining buffer, with 100 μl per well, and centrifuged at 350-g for 5 minutes, and the supernatant was discarded. The PE goat anti-Human IgG Fc antibody (ebioscience, Cat #12-4998-82) was diluted 250-fold with the staining buffer, with a volume of 100 μl per well added to the washed cell wells; the mixture was mixed evenly, and stained at 4° C. for 30 minutes. After the staining, similarly, the cells were washed twice with the staining buffer; finally, the cells were resuspended in 200 μl of staining buffer; signals were detected by a flow cytometer (Thermo Attune NxT). The stronger the signal, the stronger the binding ability of an antibody to TNFR2. The binding curve of an antibody was drawn with antibody concentration as the abscissa and corresponding mean fluorescence intensity (MFI) fold as the ordinate, and fitted with four parameters (GraphPad Prism9) to calculate the EC50 value.

[2] = target: T1, human TNFR2 on the surface of CHO-TNFR2 …; experiment: flow cytometry on CHO-TNFR2 cells; AUC against 224-WT
Protocol: as §1

[3] = target: T1, human TNFR2 on the surface of CHO-TNFR2 …; experiment: flow cytometry on CHO-TNFR2 cells; EC50 against 224-WT
Protocol: as §1

[4] = target: T1, human TNFR2 on the surface of CHO-TNFR2 …; experiment: competition flow cytometry on CHO-TNFR2 cells, competitor TNFα-biotin; IC50 against 224-WT
Protocol: CHO stable cells highly expressing human TNFR2 were used for the experiment (the same as CHO-TNFR2 in Example 4). The CHO-TNFR2 cells were digested, washed twice with DPBS, then stained with Live/Dead (L/D) (20 minutes at room temperature), and plated at a density of 1×10⁵ cells/50 μl/well. A test anti-TNFR2 antibody was diluted to 6 μg/ml with a staining buffer as the starting concentration: the antibody was subjected to 3.33-fold gradient dilution, with a total of 7 concentration points. The diluted antibody was added to the plated cells at 50 μl/well, and the mixture was mixed well by gentle pipetting, and incubated at 4° C. for 30 minutes. Then the diluted 100 ng/ml of human TNFα-biotin was added at 100 μl/well, and the mixture was mixed well by gentle pipetting, and then incubated at 4° C. for 30 minutes. The mixture was washed twice with a staining buffer, and then 0.12 μg/ml PE-streptavidin (BioLegend, Cat #405204) was added at 100 μl/well; the resulting mixture was incubated at 4° C. for 30 minutes. The mixture was washed twice with a staining buffer, and then 150 μl of staining buffer was added to resuspend the cells; signals were detected by a flow cytometer (Thermo Attune NxT). The inhibitory curve of an antibody was drawn with antibody concentration as the abscissa and corresponding MFI value as the ordinate, and fitted with four parameters (GraphPad Prism9) to calculate the IC50 value. The smaller the IC50 value, the stronger the ability of an antibody to inhibit the binding of human TNFα to human TNFR2. The blocking effect of a humanized antibody was normalized to its corresponding human-murine chimeric WT antibody. The higher the percentage value, the better the inhibitory effect of the humanized antibody.

Binder	EC50 [1]	% Relative activity (Test antibody/WT antibody) [2]	% Relative activity (WT antibody/test antibody) [3]	% Relative activity (WT antibody/test antibody) [4]
224-Hu1 (antibody, V domains shown, Humanized form of #224; also called VH8 + VL6) VH: QVQLVQSGAEVKKPGASVKVSCKASGFNNKDIYMHWVRQAPGQGLEWIGRIDPATGNTKHDPKFQDRVTMTSDTSTNTVYMELSSLRSEDTAVYYCARSPYGDFGAMDYWGQGTLVTVSS VL: DIQMTQSPSSLSASVGDRVTITCTASSSVSSNYLHWYQQKPGKAPKLWIYSTSNLPSGVPSRFSGSGSGTDFTLTISSLQPEDFATYYCHQYHRSPWTFGQGTKVEIK	0.04 ng/mL	96.2%	94.5%	108%
224-Hu7 (antibody, V domains shown, Humanized form of #224; also called VH9 + VL10) VH: QVQLVQSGSELKKPGASVKVSCKASGFNNKDIYMHWVRQAPGQGLEWMGRIDPATGNTKHDPKFQDKAVLSSDTSVSTAYLQISSLKAEDTAVYYCARSPYGDFGAMDYWGQGTLVTVSS VL: DIQMTQSPSSLSASVGDRVTITCTASSSVSSNYLHWYQQKPGKAPKLLIYSTSNLPSGVPSRFSGSGSGTDFTLTISSLQPEDFATYYCHQYHRSPWTFGQGTKVEIK	0.03 ng/mL	91%	140%	73%
224-Hu3 (antibody, V domains shown, Humanized form of #224; also called VH9 + VL8) VH: QVQLVQSGSELKKPGASVKVSCKASGFNNKDIYMHWVRQAPGQGLEWMGRIDPATGNTKHDPKFQDKAVLSSDTSVSTAYLQISSLKAEDTAVYYCARSPYGDFGAMDYWGQGTLVTVSS VL: DIQMTQSPSSLSASVGDRVTITCTASSSVSSNYLHWYQQKPGKAPKLLIYSTSNLPSGVPSRFSGSGSGTDFTLTISSLQAEDAATYYCHQYHRSPWTFGQGTKVEIK	0.03 ng/mL	101%	116%	107%
224-Hu2 (antibody, V domains shown, Humanized form of #224; also called VH9 + VL7) VH: QVQLVQSGSELKKPGASVKVSCKASGFNNKDIYMHWVRQAPGQGLEWMGRIDPATGNTKHDPKFQDKAVLSSDTSVSTAYLQISSLKAEDTAVYYCARSPYGDFGAMDYWGQGTLVTVSS VL: DIQMTQSPSSLSASVGDRVTITCTASSSVSSNYLHWYQQKPGSSPKLWIYSTSNLPSGVPSRFSGSGSGTDFTLTISSLQPEDFATYYCHQYHRSPWTFGQGTKVEIK	0.03 ng/mL	101%	119%	124%

Second part, the binder after the results:

EC50 [1]	% Relative activity (Test antibody/WT antibody) [2]	% Relative activity (WT antibody/test antibody) [3]	% Relative activity (WT antibody/test antibody) [4]	Binder
0.03 ng/mL	93.1%	131%	102%	224-Hu4 (antibody, V domains shown, Humanized form of #224; also called VH9 + VL6) VH: QVQLVQSGSELKKPGASVKVSCKASGFNNKDIYMHWVRQAPGQGLEWMGRIDPATGNTKHDPKFQDKAVLSSDTSVSTAYLQISSLKAEDTAVYYCARSPYGDFGAMDYWGQGTLVTVSS VL: DIQMTQSPSSLSASVGDRVTITCTASSSVSSNYLHWYQQKPGKAPKLWIYSTSNLPSGVPSRFSGSGSGTDFTLTISSLQPEDFATYYCHQYHRSPWTFGQGTKVEIK
0.03 ng/mL	90.4%	139%	96%	224-Hu6 (antibody, V domains shown, Humanized form of #224; also called VH8 + VL7) VH: QVQLVQSGAEVKKPGASVKVSCKASGFNNKDIYMHWVRQAPGQGLEWIGRIDPATGNTKHDPKFQDRVTMTSDTSTNTVYMELSSLRSEDTAVYYCARSPYGDFGAMDYWGQGTLVTVSS VL: DIQMTQSPSSLSASVGDRVTITCTASSSVSSNYLHWYQQKPGSSPKLWIYSTSNLPSGVPSRFSGSGSGTDFTLTISSLQPEDFATYYCHQYHRSPWTFGQGTKVEIK
0.04 ng/mL	88.9%	112%	95%	224-Hu5 (antibody, V domains shown, Humanized form of #224; also called VH9 + VL9) VH: QVQLVQSGSELKKPGASVKVSCKASGFNNKDIYMHWVRQAPGQGLEWMGRIDPATGNTKHDPKFQDKAVLSSDTSVSTAYLQISSLKAEDTAVYYCARSPYGDFGAMDYWGQGTLVTVSS VL: DIQMTQSPSSLSASVGDRVTITCTASSSVSSNYLHWYQQKPGKAPKLLIYSTSNLPSGVPSRFSGSGSGTDYSLTISSLQPEDFATYYCHQYHRSPWTFGQGTKVEIK
